Measurements published in article PMC11115209.

What was measured:
[1] = biological target: His6-TBC1D15 (UniProt Q8TC07); assay: immunoprecipitation with Flag beads, immunoblot band quantification; conditions: HA-SUMO2 co-expressed, read off a plot, scale: relative band intensity
[2] = biological target: His6-TBC1D15 (UniProt Q8TC07); assay: HA beads pulldown, immunoblot band quantification; conditions: read off a plot
[3] = + SulF (GST-SulF), parent: est. 0.16

Sequence of UniProt Q8TC07 (Q8TC07 whole entry, looked up): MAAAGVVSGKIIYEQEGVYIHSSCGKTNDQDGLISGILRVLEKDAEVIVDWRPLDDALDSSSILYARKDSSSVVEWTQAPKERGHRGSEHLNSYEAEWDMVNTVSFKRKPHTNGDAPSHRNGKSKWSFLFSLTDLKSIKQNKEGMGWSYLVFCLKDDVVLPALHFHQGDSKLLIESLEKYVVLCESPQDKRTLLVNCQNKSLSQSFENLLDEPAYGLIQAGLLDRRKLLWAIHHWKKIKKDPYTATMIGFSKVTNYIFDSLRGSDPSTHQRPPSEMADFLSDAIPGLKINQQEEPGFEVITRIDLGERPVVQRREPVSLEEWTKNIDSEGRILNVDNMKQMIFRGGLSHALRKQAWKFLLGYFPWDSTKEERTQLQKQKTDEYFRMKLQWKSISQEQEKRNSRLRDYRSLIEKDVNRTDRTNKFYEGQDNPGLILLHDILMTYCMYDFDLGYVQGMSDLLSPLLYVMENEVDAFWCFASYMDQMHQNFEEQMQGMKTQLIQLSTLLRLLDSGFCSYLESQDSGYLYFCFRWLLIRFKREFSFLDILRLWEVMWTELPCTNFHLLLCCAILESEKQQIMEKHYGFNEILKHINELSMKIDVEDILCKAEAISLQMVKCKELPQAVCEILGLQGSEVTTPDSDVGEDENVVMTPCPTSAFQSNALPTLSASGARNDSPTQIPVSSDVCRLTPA

Substance: Flag-Rab7 WT (Rab7 part of m4) Q67L
- response ([1]; + GST, parent: est. 0.25): 0.88
- response [1, 3]: 0.48
- response (relative ratio) ([2]; Buffer added after 1 h incubation): 1
- response (relative ratio) ([2]; GST added after 1 h incubation): 1.1
- response (relative ratio) ([2]; GST-SulF added after 1 h incubation (competition)): 0.34
- response (relative ratio) ([2]; GST-SulFIV/AA added after 1 h incubation (competition)): 1.1

Substance: Flag-Rab7 WT (Rab7 part of m4) Q67L; K175R
- response ([1]; + GST, parent: est. 0.25): 1
- response [1, 3]: 1.1

Substance: Flag-Rab7 WT (Rab7 part of m4) T22N
- response ([1]; + GST, parent: est. 0.25): 0.57
- response [1, 3]: 0.31
